{
  "source": "patent US20130011380A1",
  "about": "(published 2013)",
  "assay_in_all_cases": "anti-Flag IP-MS, mES nuclear extract",
  "key": {"Tip2": {"target": "T1, Tip2 (mouse)", "T1 construct": "Gene name as printed; possibly a misprint, not resolved", "T1 sequence (Q9Z0U1 whole entry)": "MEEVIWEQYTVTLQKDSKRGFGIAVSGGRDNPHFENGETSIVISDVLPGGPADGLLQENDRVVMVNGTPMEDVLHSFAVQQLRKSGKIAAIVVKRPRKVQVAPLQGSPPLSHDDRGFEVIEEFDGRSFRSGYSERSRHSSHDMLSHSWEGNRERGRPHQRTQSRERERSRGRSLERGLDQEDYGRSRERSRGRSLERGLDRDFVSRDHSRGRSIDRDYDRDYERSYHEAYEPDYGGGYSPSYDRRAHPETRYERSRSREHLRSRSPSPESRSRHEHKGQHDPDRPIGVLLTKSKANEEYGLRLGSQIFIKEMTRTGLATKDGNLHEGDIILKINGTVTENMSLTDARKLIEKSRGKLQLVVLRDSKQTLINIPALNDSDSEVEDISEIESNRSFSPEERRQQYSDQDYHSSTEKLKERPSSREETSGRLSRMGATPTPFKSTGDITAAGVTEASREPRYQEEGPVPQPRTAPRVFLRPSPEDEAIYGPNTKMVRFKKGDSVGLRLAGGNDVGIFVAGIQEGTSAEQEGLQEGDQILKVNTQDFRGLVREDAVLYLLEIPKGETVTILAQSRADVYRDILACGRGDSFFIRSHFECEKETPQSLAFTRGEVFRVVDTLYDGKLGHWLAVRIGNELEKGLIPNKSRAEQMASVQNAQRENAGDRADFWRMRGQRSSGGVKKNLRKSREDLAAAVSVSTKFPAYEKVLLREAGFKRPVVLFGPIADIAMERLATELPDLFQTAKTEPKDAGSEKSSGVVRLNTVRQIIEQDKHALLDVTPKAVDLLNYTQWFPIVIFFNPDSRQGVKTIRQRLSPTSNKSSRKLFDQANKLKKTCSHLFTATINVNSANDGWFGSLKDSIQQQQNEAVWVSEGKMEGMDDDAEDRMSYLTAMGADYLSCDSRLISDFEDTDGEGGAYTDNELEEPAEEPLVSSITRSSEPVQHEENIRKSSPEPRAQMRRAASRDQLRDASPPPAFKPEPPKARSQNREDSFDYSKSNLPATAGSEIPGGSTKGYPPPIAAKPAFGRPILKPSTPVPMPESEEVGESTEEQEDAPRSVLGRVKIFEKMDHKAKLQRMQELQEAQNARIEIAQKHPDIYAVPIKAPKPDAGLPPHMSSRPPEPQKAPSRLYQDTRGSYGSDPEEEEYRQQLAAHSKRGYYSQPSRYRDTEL", "description": "(§1) Mass spectrometry was used to identify the potential interactors of AID and understand the functional molecular players that orchestrate mammalian DNA demethylation. The following AID constructs were used: 1) human AID containing two tandem Flag tags at the N-terminus of the protein, cloned into the pHAGE-STEMCCA lentiviral vector, and 2) human AID containing two tandem Flag tags at the C-terminus of the protein, cloned into the pHAGE-STEMCCA lentiviral vector. Virus containing these constructs was subsequently used to infect mouse embryonic stem cells (CGR8), and stable cell lines overexpressing Flag-human AID were selected. As a control, the lentiviral vector containing only the 2× Flag tag was used.\n(§2) The stable ES cell lines expressing AID and Control 2× Flag were fractionated into cytoplasmic and nuclear extracts for immunoprecipitating the AID protein using an antibody against the Flag tag. The resulting complex was subjected to mass spectrometric analyses.\n(§3) TABLE 5 After immunoprecipitation, AID and the interacting proteins were identified by mass spectrometry (MS). All proteins were subjected to trypsin digestion to break them down into smaller peptides, and run through a mass spectrometer. Column C indicates the number of unique peptides of a particular protein detected by MS analysis, to be associated with the AID-Flag protein. Column D represents the number of peptides associated with the Flag only protein. The higher the number of unique peptides (>3) that are associated with AID, but not with the Flag protein, the stronger the indication of the specificity of the interaction. Columns E and F represent the associated spectra i.e. the frequency of these peptides detected in association with the AID protein as a measure of the abundance of the associated protein."}, "Tmpo": {"target": "Tmpo (mouse)", "description": "as §1, §2, §3"}, "Lmo7": {"target": "Lmo7 (mouse, UniProt E9PYF4 24-1649)", "sequence (E9PYF4 entry or part of it)": "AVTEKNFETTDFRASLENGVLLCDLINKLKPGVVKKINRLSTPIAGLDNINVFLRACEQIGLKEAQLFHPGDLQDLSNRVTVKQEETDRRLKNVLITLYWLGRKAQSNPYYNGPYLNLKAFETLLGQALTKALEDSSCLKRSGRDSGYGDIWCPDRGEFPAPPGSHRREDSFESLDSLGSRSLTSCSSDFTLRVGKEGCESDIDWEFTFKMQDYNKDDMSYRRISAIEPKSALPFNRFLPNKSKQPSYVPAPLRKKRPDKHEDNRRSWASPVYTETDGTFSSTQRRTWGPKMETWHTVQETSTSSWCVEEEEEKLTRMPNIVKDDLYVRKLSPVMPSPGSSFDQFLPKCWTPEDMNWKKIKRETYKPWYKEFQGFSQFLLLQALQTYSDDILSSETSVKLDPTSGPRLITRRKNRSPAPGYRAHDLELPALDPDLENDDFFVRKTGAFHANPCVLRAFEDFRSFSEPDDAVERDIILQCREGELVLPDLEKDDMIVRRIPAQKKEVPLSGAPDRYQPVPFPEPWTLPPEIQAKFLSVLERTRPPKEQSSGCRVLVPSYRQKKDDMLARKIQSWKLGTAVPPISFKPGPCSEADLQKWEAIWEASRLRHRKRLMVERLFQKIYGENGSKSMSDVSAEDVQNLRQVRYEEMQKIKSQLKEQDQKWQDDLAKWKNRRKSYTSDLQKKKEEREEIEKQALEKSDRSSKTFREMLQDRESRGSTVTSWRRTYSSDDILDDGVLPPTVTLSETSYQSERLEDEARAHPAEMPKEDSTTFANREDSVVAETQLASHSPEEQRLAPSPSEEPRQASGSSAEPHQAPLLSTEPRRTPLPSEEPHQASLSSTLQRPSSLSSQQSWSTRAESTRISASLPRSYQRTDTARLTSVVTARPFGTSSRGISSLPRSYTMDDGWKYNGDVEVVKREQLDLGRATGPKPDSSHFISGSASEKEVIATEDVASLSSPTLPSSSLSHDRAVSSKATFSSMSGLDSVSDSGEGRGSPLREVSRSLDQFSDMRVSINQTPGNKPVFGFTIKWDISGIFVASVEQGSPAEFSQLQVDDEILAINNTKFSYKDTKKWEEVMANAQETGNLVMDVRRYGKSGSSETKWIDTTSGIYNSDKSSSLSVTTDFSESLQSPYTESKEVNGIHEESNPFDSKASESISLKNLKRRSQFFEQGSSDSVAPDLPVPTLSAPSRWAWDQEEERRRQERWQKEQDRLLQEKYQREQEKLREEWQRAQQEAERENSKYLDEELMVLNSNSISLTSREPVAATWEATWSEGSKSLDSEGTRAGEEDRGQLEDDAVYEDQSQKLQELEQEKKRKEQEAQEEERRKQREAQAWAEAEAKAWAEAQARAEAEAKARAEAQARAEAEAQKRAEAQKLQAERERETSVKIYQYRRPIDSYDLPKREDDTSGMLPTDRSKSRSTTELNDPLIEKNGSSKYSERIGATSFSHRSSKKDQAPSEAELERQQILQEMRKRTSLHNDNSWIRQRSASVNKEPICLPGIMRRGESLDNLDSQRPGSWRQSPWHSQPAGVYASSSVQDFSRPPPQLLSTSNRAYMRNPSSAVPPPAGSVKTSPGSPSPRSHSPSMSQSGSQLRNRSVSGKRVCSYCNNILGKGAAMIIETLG", "description": "as §1, §2, §3"}},
  "data": [
    {"binder": "human AID containing two tandem Flag tags (Flag-human AID) (enzyme, UniProt Q9GZX7 1-198, looked up, Stably overexpressed in mouse ES cells (CGR8) from the pHAGE-STEMCCA lentiviral vector; Two constructs (N-terminal or C-terminal 2x Flag) were made; also called AID-Flag protein; not shown: two tandem Flag tags) MDSLLMNRRKFLYQFKNVRWAKGRRETYLCYVVKRRDSATSFSLDFGYLRNKNGCHVELLFLRYISDWDLDPGRCYRVTWFTSWSPCYDCARHVADFLRGNPNLSLRIFTARLYFCEDRKAEPEGLRRLHRAGVQIAIMTFKDYFYCWNTFVENHERTFKAWEGLHENSVRLSRQLRRILLPLYEVDDLRDAFRTLGL", "values": [
      {"measurement": "Nucleus peptide", "setting": "Tip2", "value": 16, "unit": "peptides"},
      {"measurement": "Nucleus spectra", "setting": "Tip2", "value": 36, "unit": "spectra"},
      {"measurement": "Nucleus peptide", "setting": "Tmpo", "value": 4, "unit": "peptides"},
      {"measurement": "Nucleus spectra", "setting": "Tmpo", "value": 16, "unit": "spectra"},
      {"measurement": "Nucleus peptide", "setting": "Lmo7", "value": 15, "unit": "peptides"},
      {"measurement": "Nucleus spectra", "setting": "Lmo7", "value": 31, "unit": "spectra"}
    ]}
  ]
}
